Reference: patent US20240400614A1, “CLEAVABLE PEPTIDES AND METHODS OF USE THEREOF” (Bright Peak Therapeutics AG, priority 2023, published 2024)
Square brackets hold non-standard residues; d marks the D form. Ends that are not written are not given here. Tyr(3-NO2) = N[C@@H](Cc1ccc(O)c([N+](=O)[O-])c1)C(=O)O; Nle = CCCC[C@H](N)C(=O)O; 2Abz = Nc1ccccc1C(=O)O

Columns and labels:
Assay type in all cases: biochemical
matriptase = biological target: T1, matriptase (Homo sapiens, UniProt Q9Y5Y6); assay: FRET peptide cleavage efficiency with matriptase; conditions: 200 uM linker, 1 ug/ml protease, 37° C., buffer B pH 9.0
T1 construct: purchased R&D Systems 3946-SEB
T1 sequence (Q9Y5Y6 615-855 limits assumed): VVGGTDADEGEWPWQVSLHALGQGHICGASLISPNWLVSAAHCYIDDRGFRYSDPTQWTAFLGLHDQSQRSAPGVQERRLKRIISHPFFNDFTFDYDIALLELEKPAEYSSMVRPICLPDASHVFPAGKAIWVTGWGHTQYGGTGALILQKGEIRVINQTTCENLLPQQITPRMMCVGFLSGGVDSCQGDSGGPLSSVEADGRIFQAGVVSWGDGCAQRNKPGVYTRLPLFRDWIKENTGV

Kallikrein-3 = Kallikrein-3 (Homo sapiens, UniProt P07288); assay: FRET peptide cleavage efficiency with Kallikrein-3; conditions: peptide 200 uM, Kallikrein-3 2 μg/ml, 37° C., pH 8
Sequence of Kallikrein-3 (P07288 25-261, species assumed): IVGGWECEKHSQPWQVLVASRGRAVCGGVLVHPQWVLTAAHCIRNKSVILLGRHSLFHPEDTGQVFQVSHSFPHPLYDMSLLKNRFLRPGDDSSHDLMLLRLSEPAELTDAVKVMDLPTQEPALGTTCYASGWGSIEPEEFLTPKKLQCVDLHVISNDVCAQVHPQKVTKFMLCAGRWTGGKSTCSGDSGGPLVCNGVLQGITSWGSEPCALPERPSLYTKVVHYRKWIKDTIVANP

MMP-7 = biological target: T2, MMP-7 (Homo sapiens, UniProt P09237); assay: FRET peptide cleavage efficiency with MMP-7 (standard pH 7.5; also pH 6.5); conditions: for % cleavage MMP-7 t = 15 min: t = 15 min (Table 9); for % cleavage MMP-7 t = 60 min: t = 60 min (Table 9); for % cleavage MMP-7 t = 120 min: t = 120 min (Table 9)
T2 construct: purchased SIGMA CC1059
T2 sequence (P09237 95-267): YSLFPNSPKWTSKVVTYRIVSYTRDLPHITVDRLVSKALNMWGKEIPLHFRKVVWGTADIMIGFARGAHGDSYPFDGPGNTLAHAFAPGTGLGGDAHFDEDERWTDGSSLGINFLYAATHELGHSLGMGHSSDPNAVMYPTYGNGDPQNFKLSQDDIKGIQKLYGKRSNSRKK

MMP-2 = biological target: T3, MMP-2 (Homo sapiens, UniProt P08253); assay: FRET peptide cleavage efficiency with MMP-2
T3 construct: purchased SIGMA PF023
T3 sequence (P08253 110-660): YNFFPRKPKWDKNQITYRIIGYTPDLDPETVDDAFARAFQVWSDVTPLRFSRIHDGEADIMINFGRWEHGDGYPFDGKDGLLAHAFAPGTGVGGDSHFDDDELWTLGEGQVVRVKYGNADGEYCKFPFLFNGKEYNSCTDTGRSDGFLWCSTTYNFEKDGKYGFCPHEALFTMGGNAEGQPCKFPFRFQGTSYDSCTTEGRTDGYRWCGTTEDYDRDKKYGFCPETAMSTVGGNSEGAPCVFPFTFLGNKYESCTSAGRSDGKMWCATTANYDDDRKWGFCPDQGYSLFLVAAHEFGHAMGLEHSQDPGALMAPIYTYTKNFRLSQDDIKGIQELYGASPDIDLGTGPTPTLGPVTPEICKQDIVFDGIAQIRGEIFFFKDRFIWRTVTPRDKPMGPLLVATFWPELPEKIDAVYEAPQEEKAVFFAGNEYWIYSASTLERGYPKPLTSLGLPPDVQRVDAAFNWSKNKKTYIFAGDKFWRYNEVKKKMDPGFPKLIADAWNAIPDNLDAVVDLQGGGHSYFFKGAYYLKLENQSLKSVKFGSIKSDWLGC

MMP-9 = biological target: T4, MMP-9 (Homo sapiens, UniProt P14780); assay: FRET peptide cleavage efficiency with MMP-9 (standard pH 7.5; also pH 6.5); conditions: for % cleavage MMP-9 t = 15 min: t = 15 min (Table 9); for % cleavage MMP-9 t = 60 min: t = 60 min (Table 9); for % cleavage MMP-9 t = 120 min: t = 120 min (Table 9)
T4 construct: purchased SIGMA PF024
T4 sequence (P14780 94-707): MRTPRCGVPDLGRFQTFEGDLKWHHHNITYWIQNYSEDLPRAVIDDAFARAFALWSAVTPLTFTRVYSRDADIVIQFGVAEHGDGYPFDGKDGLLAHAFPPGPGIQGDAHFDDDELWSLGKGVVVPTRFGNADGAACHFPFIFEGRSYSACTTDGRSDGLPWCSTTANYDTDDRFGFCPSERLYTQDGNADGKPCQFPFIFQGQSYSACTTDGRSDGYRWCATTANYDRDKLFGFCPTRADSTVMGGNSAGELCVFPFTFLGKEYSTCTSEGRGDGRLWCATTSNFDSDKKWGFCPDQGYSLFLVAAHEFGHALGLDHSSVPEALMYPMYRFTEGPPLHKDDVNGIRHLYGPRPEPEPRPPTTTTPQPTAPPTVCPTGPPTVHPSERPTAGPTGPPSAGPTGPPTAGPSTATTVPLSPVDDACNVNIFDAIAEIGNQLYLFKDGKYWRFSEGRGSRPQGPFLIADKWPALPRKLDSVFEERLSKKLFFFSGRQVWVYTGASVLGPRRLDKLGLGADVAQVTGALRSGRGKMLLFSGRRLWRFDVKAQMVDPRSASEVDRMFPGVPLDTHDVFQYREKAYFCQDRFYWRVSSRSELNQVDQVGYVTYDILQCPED

uPA = uPA (Homo sapiens, UniProt P00749); assay: FRET peptide cleavage efficiency with uPA; conditions: 200 uM linker, 1 ug/ml protease, 37° C., buffer A pH 8.5
[1] = t = 15 min, 200 uM linker, 1 ug/ml protease, 37° C., buffer C pH 7.5
[2] = t = 60 min, 200 uM linker, 1 ug/ml protease, 37° C., buffer C pH 7.5
[3] = t = 120 min, 200 uM linker, 1 ug/ml protease, 37° C., buffer C pH 7.5

| Substance | % cleavage Matriptase t = 15 min (matriptase) [%] | % cleavage Matriptase t = 60 min (matriptase) [%] | % cleavage Matriptase t = 120 min (matriptase) [%] | Kallikrein-3 t = 1 h % cleavage (Kallikrein-3) [%] | Kallikrein-3 t = 3 h % cleavage (Kallikrein-3) [%] | Kallikrein-3 t = 6 h % cleavage (Kallikrein-3) [%] | Kallikrein-3 t = 8 h % cleavage (Kallikrein-3) [%] | % cleavage MMP-7 t = 15 min (MMP-7) [%] | % cleavage MMP-7 t = 60 min (MMP-7) [%] | % cleavage MMP-7 t = 120 min (MMP-7) [%] | % cleavage MMP-2 t = 15 min (MMP-2; t = 15 min (Table 9)) [%] | % cleavage MMP-2 t = 15 min (MMP-2; [1]) [%] | % cleavage MMP-2 t = 60 min (MMP-2; t = 60 min (Table 9)) [%] | % cleavage MMP-2 t = 60 min (MMP-2; [2]) [%] | % cleavage MMP-2 t = 120 min (MMP-2; t = 120 min (Table 9)) [%] | % cleavage MMP-2 t = 120 min (MMP-2; [3]) [%] | % cleavage MMP-9 t = 15 min (MMP-9) [%] | % cleavage uPA t = 15 min (uPA) [%] | % cleavage uPA t = 60 min (uPA) [%] | % cleavage uPA t = 120 min (uPA) [%] | further results |
| --- | --- | --- | --- | --- | --- | --- | --- | --- | --- | --- | --- | --- | --- | --- | --- | --- | --- | --- | --- | --- | --- |
| GSGSGSGS ([2Abz]GSGSGSGS[Tyr(3-NO2)]-NH2) [LNK064] | 0 | 0 | 0 | 0 | 0 | 0 | 0 | 0 | 0 | 0 | 0 | 0 | 0 | 0 | 0 | 0 | 0 | 0 | 0 | 0 | % cleavage MMP-9 t = 60 min (MMP-9): 0%; % cleavage MMP-9 t = 120 min (MMP-9): 0% |
| RRLNYSL ([2Abz]RRLNYSL[Tyr(3-NO2)]-NH2) [LNK074] | 2 | 6 | 10 | 23 | 59 | 87 | 96 | – | – | – | – | 1 | – | 5 | – | 9 | – | 0 | 0 | 0 | – |
| RSSYRSL ([2Abz]RSSYRSL[Tyr(3-NO2)]-NH2) [LNK075] | 8 | 33 | 56 | 49 | 83 | 94 | 100 | 0 | 0 | 0 | 16 | 16 | 60 | 60 | 86 | 86 | 1 | 2 | 9 | 19 | % cleavage MMP-9 t = 60 min (MMP-9): 5%; % cleavage MMP-9 t = 120 min (MMP-9): 10% |
| RSSYYSL ([2Abz]RSSYYSL[Tyr(3-NO2)]-NH2) [LNK076] | 0 | 0 | 0 | 0 | 0 | 0 | 0 | – | – | – | – | 19 | – | 69 | – | 92 | – | 0 | 0 | 0 | – |
| SSQYSSPG ([2Abz]SSQYSSPG[Tyr(3-NO2)]-NH2) [LNK069] | 0 | 0 | 0 | 6 | 16 | 31 | 40 | – | – | – | – | 1 | – | 6 | – | 13 | – | 0 | 0 | 0 | – |

Second part, led by results:

| % cleavage Matriptase t = 15 min (matriptase) [%] | % cleavage Matriptase t = 60 min (matriptase) [%] | % cleavage Matriptase t = 120 min (matriptase) [%] | Kallikrein-3 t = 1 h % cleavage (Kallikrein-3) [%] | Kallikrein-3 t = 3 h % cleavage (Kallikrein-3) [%] | Kallikrein-3 t = 6 h % cleavage (Kallikrein-3) [%] | Kallikrein-3 t = 8 h % cleavage (Kallikrein-3) [%] | % cleavage MMP-7 t = 15 min (MMP-7) [%] | % cleavage MMP-7 t = 60 min (MMP-7) [%] | % cleavage MMP-7 t = 120 min (MMP-7) [%] | % cleavage MMP-2 t = 15 min (MMP-2; t = 15 min (Table 9)) [%] | % cleavage MMP-2 t = 15 min (MMP-2; [1]) [%] | % cleavage MMP-2 t = 60 min (MMP-2; t = 60 min (Table 9)) [%] | % cleavage MMP-2 t = 60 min (MMP-2; [2]) [%] | % cleavage MMP-2 t = 120 min (MMP-2; t = 120 min (Table 9)) [%] | % cleavage MMP-2 t = 120 min (MMP-2; [3]) [%] | % cleavage MMP-9 t = 15 min (MMP-9) [%] | % cleavage uPA t = 15 min (uPA) [%] | % cleavage uPA t = 60 min (uPA) [%] | % cleavage uPA t = 120 min (uPA) [%] | Substance | further results |
| --- | --- | --- | --- | --- | --- | --- | --- | --- | --- | --- | --- | --- | --- | --- | --- | --- | --- | --- | --- | --- | --- |
| 0 | 0 | 0 | 0 | 0 | 0 | 0 | 0 | 0 | 0 | 23 | 23 | 74 | 74 | 100 | 100 | 0 | 0 | 0 | 0 | HSSKLQYFGKL ([2Abz]HSSKLQYFGKL[Tyr(3-NO2)]-NH2) [LNK061] | % cleavage MMP-9 t = 60 min (MMP-9): 0%; % cleavage MMP-9 t = 120 min (MMP-9): 0% |
| 60 | 100 | 100 | 8 | 31 | 55 | 67 | 0 | 0 | 0 | 1 | 1 | 2 | 2 | 4 | 4 | 0 | 0 | 0 | 0 | RGRRHSSKLQ ([2Abz]RGRRHSSKLQ[Tyr(3-NO2)]-NH2) [LNK052] | % cleavage MMP-9 t = 60 min (MMP-9): 0%; % cleavage MMP-9 t = 120 min (MMP-9): 0% |
| 66 | 100 | 100 | 28 | 79 | 100 | 100 | 0 | 0 | 0 | 71 | 71 | 100 | 100 | 100 | 100 | 41 | 0 | 0 | 0 | RGRRHSSKLQPLGYFGKL ([2Abz]RGRRHSSKLQPLGYFGKL[Tyr(3-NO2)]-NH2) [LNK062] | % cleavage MMP-9 t = 60 min (MMP-9): 100%; % cleavage MMP-9 t = 120 min (MMP-9): 100% |
| 0 | 0 | 0 | 27 | 62 | 87 | 94 | – | – | – | – | 3 | – | 11 | – | 19 | – | 0 | 0 | 0 | SS-Nle-YSSAG ([2Abz]SS[Nle]YSSAG[Tyr(3-NO2)]-NH2) [LNK081] | – |
